In general, Kd refers to the concentration at which binding is half-saturated.

Experiment [1] addresses T1, FGFR1c ectodomain (extracellular ligand-binding domain of FGFR1c), P11362.
T1 chain: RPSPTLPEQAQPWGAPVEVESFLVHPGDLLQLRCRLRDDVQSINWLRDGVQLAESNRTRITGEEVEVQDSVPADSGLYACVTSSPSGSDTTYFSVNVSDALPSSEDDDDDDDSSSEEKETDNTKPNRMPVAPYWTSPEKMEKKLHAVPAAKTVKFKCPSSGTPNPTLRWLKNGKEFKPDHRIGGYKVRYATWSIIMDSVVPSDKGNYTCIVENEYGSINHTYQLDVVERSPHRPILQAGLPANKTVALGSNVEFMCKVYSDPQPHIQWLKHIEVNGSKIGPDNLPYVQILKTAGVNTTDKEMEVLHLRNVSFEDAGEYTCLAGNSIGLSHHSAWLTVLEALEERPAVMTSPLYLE
Put plainly: SPR. Particulars: chains chain, remark: other sources report otherwise.

The target in experiment [2] is T2, FGFR1c ectodomain (extracellular ligand-binding domain of FGFR1c) (UniProt P11362 22-376).
T2 chain: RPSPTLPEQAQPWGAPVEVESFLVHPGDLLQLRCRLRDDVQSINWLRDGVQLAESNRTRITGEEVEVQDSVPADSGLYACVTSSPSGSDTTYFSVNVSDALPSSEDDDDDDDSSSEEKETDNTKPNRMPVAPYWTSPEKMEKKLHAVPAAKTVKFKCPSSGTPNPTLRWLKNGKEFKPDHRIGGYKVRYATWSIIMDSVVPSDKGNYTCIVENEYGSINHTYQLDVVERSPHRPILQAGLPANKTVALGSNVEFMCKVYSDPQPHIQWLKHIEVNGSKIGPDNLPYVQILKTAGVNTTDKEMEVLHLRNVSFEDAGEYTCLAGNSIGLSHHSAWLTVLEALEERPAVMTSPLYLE
Put plainly: SPR. In general terms: Surface plasmon resonance follows binding to a sensor surface in real time, without labels.

B1: Recombinant human wild-type FGF21 (His29-Ser209), Q9NSA1 29-209 (protein)
chain: HPIPDSSPLLQFGGQVRQRYLYTDDAQQTEAHLEIREDGTVGGAADQSPESLLQLKALKPGVIQILGVKTSRFLCQRPDGALYGSLHFDPEACSFRELLLEDGYNVYQSEAHGLPLHLPGNKSPHRDPAPRGPARFLPLPGLPPALPEPPGILAPQPPDVGSSDPLSMVGPSQGRSPSYAS
The molecule B1 returned a Kd in experiment [1] of 7.96 µM.

B2: FGF21^D2D3 (FGF21 with its R96–V106 region replaced by the L101–T111 segment of FGF1) (ligand)
chain: HPIPDSSPLLQFGGQVRQRYLYTDDAQQTEAHLEIREDGTVGGAADQSPESLLQLKALKPGVIQILGVKTSRFLCQRPDGALYGSLHFDPEACSFLERLEENHYNTYQSEAHGLPLHLPGNKSPHRDPAPRGPARFLPLPGLPPALPEPPGILAPQPPDVGSSDPLSMVGPSQGRSPSYAS
B2 came in with a dissociation constant Kd in experiment [2] of 3.94 µM.

The values above are taken from paper PMC12295313 (2025).
